Results reported in article PMC6589724, “A geminivirus betasatellite encoded βC1 protein interacts with PsbP and subverts PsbP‐mediated antiviral defence in plants”.

Biological target: T1, GST-βC1 (Radish leaf curl betasatellite (RaLCB), UniProt A9XCM1 1-118)
T1 sequence: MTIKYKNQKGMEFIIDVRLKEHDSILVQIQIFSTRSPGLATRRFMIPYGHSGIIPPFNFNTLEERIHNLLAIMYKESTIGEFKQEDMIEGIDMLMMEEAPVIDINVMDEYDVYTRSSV
Experiment: EMSA; 20 mM Tris-HCl pH 8.0, 2 mM DTT, 5 mM MgCl2, 12% glycerol, 25 mM KCl, 2 mM ATP, 10 nM probe, 15 min, room temperature; 3.7% native PAGE
Conditions: protein: recombinant; tags: N-terminal GST (pGEX-6p-2); label: 5'-32P; single strand

ACGCTACGCAGCAGCCTTAGCTAC (ssDNA) [SCR probe (1303-1326)]: binds.
